Assay: yeast display, Sf9 membrane polyspecificity reagent, FACS + sequencing; frameworks hold sequencing errors
In short: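 Polyreactivity labels are assigned by the sorting gate from which each nanobody was recovered. The gates were low and high (top ~1%), set on anti-HA fluorescence for expression and streptavidin fluorescence for reagent binding. Before sorting, galactose-induced (36–48 hours) yeast display cells were stained for 1 hour at 4 °C with 10% biotinylated, detergent-solubilized Sf9 membrane reagent.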

Sequence | polyreactivity (PSR sort gate)
QVQLVESGGGLFQAGGSLRLSCAASGSTFDVNTMGGYRQAPGKERELVAAIRLRGGSTYYADSVKGRFTISRYNAKNTVYLQMNSLKPEDTAVYYCAARYPWVYYDFDYWGQGTQVTVSS | low polyreactivity
QVQLVESGGGLFQAGGSLRLSCAASGSTFKRYAMGWYRQAPGKERELVAAITLSGGNTYYADSVKGRFTISRYNAKNTVYLQMNSLKPEDTAVYYCAARRYRGYDYWGQGTQVTVSS | high polyreactivity
QVQLVESGGGLFQAGGSLRLSCAASGSTLWRNAMGWYRQATGKERELVAAITRRGGITYYADSVKGRFTISRDNAKNTVYLQMNSLKPEDTAVYYCNAVRSTDGSDYWGQGTQVTVSS | high polyreactivity
QVQLVESGGGLFQAGGSLRLSCAASGYTFPLYDMGWYRQAPGKERELVADINIGGASTYYADSVKGRFTISRDNAKNTVNLQMNSLKPEDTAVYYCAKEYNDGYFPTFDYDYWGQGTQVTVSS | low polyreactivity
QVQLVESGGGLFQAGGSLRLSCAASVSIFSWYTMGWYRQAPGKERELDAAITSSGGSTYYADSVKGRFTISRDNAKNTVYLQMNSLKPEDTAVYYCAAKSWFYYLHRPYVRRYDYWGQGTQVTVSS | high polyreactivity
QVQLVESGGGLFQAGGSLRLSCADYGSTFRTYVMGWYRQAPGKESEFVAAITNGISTNYADSVKGRFTISRDNAKYTFYLQMNSLKPEDTAVYYCAARVRRGSTQAQYYYWGQGTQVTVSS | high polyreactivity
QVQLVESGGGLFQAGGSLRVSCAASGRTFVNYAMGWYRQAAGKERELVAAISTSGGSTYYADSVKGRFTISRDNAKNTDYYQRNSLKPEDTAVYYCKKVRYLAVNLGQFTFDYWGQGTQGTVSS | low polyreactivity
QVQLVESGGGLFQAGGSLSLRCAASGSIFEVNALGWDRQGPGKERELVAAISQRGTRTYYADSVKGRFTMSRDYAKNTVYLQMNILKPEDTAVYYCNRGGWRQYDSWGQGTQVTVST | high polyreactivity
QVQLVESGGGLFQAGRSLPLSCAASGIIFTQYPMGWYRQAPGKERELVAAISGSGGRTYYADSVKGRFSISRDNEKNTVYLQMKILKPEDTAVYYCAARYARYGNDYWGQCTQVTVSS | high polyreactivity
QVQLVESGGGLFQAGRSLRLICAASGRIFNQYPMGWSRQAPGKETELVAAIRRSSDSTYYADSVKGRFTISRDNAKNTVYLQMNSLTPEDSAVYYCATDGYRRWVWMEYWGQGTQVTVSS | low polyreactivity
QVQLVESGGGLFQARGSLRLSCAASGRTFWYYTMGWYRPAPGKERELVASITYRGGSTYYADSVKGRFTISRDNAKITVYLQMNSLKREDTALYYCYARYKRYSYDYWGQGTQVTVSS | high polyreactivity
QVQLVESGGGLFQEGGSLRLSCAASGRTLRYYAMGWYRQAPGKVRELVAAISSGGTTNYADSVKGRFTISRDNAKNTVYFQMKSLKPEDTAVYYFAASYRRFRFSHYDYWGQVTQVTVSS | high polyreactivity
QVQLVESGGGLFQEGGSLRLSCAASGSIFEPYVMGWYRQAPGKESELVAAIRQTGGSTYYADSVKGRFTISRDNAKNTVYLQMNSLKPEDTAVYYCNAEQNPSGLYDYRGVEGEMGYWGQGTQVTVSS | low polyreactivity
QVQLVESGGGLGHAGGSLRLSCAASGFTYTAYAMGWYRQAPGKERELVPSISKSDGSTYYADSVKGRFTISRDNAKNTVYLQMKSVKPEDTAVYYCATGRISRDFHRVQDLGYDYWGQGTQVNVSS | low polyreactivity
QVQLVESGGGLGQAGGSLRLRCAASGSTFQYYAMGWYRQAPGKERELVAAITHSGTRTYYADSVKGRFTISRDNAKNTVYLQMNSLKPVDTAVYYCAARGYGKYDYWGQGTQVTVSS | high polyreactivity
QVQLVESGGGLGQAGGSLRLSCAASGFTFGNYAMGWYRQAPGKERELVAVISYSTGSTNYADSVKGRFTISRDNAKNTVYLQMNSLKPEDTAVYYCAKRYRSYYQGYGYWGQGTQVTVSS | high polyreactivity

Sequence | polyreactivity (PSR sort gate)
QVQLVESGGGLGQAGGSLRLSCAASGFTFYAYVMGWYRQAPGKESELVAAISGSGSSTYYADSVKGRFTISRDNAKNTVDLEMNSLKPEDTAVYYCGAPQLYQYGGFGYWGQGTQVTVSS | high polyreactivity
QVQLVESGGGLGQAGGSLRLSCAASGRIFDVYAMGWYRQAPGKERELVATISSSGGATYYADSVKGRFTISRDNAKYTVYLQMNSLKPEDTAVYYCATTYRPTFRRHYNYWGQGTQVTVSS | low polyreactivity
QVQLVESGGGLGQAGGSLRLSCAASGRIFDYYAMGWYRQAPGKERELVATITSGSRTYYADSVKGRFTISRDNAKNTVYLQMNSLNPEDTAVYSCAAVKRSYYKGEYNAYDYWGQGTQVTVSS | high polyreactivity
QVQLVESGGGLGQAGGSLRLSCAASGRIFRDYAMGWYRQAPGKERQLVAAISWSGGSSYYADSVKGRFTISRDNAKNTVDLQMNSLKQEDTAVYYCAVEYYGGDSYRYDYWGQGTQVTVSS | low polyreactivity
QVQLVESGGGLGQAGGSLRLSCAASGRIFSYNSMGWYRPATGKERELVAAISTSGGSTYYADSVKGRFTISRDYAKNTVYLQLISLKPEDTAVYYCNARAPFSSAQPTFLIDDGYHWGQGTQETVSS | low polyreactivity
QVQLVESGGGLGQAGGSLRLSCAASGRTFLFNAMGWYRQAPGKDRELVAAISSGGGSTYYADSVKGRFTISRDNAKNTDYLEMNSLKPEDTAVYFCAAYPYYYRYNYWGQGTQVTVSS | high polyreactivity
QVQLVESGGGLGQAGGSLRLSCAASGRTFPIYVMGWYRQAPGKERELVASISASGVRTYFADSVKGRFTISRDNAKNTVYLQMNSLKPEDTAVYYCATQVRRWYSARSPNVRFDYWGQGTQVTVSS | high polyreactivity
QVQLVESGGGLGQAGGSLRLSCAASGRTFTGYAMGWYRQAPGKERELVATISRSGGTTSYADSVKGRFTISRDNAKNTVYVQMNSLKPVDTAVYYCAADRRSRPYYYWGQGTQVTVSS | high polyreactivity
QVQLVESGGGLGQAGGSLRLSCAASGSIFYRYAMGWYRQAPGKERELVAAISSTGSTYYADSVKGRFTISRDHAKNTVYLEMNSLTPEDTAVYYGAARQGYRSYRRYDYWGQGTQVTVSS | high polyreactivity
QVQLVESGGGLGQAGGSLRLSCAASGSTFQTKAMGWYRQAPGKERELVAAINSGGGTNYADSVKGRFTISRDNAKNTVYLQMNSLKPEDTAVYYCATDVLPRKYVSDYPSGAYDYWGQGTQVTVSS | low polyreactivity
QVQLVESGGGLGQAGGSLSLTCAASGSIFARNAMGWYRQAPGKERELVAAISTGGGSTYYADSVKGRFTISRDNAQNTVYLQMNSLKPEETEVYYCAAVGRSYYGHDYWGQGTQVTVSS | low polyreactivity
QVQLVESGGGLGQAGVSLRLSCAASGRIFYFNAMGWYRQAPGKEREMVAANSWSGGSTYYADSVKGRFTISRDNAKNTVYLQMNSLKPEDTAVYYCATDSYRQGDYYLGRVDYWGQGTQVTVSS | low polyreactivity
QVQLVESGGGLLHAGGSLRLSCAASGSTFILYTMGWYRQAPGKERELVAAISRSSGGTYYADSVKGRFTISRDTAKNTVYLQMNSLKTEDTAVYYCAARSRGAKYDYWGQGTQVTVSS | high polyreactivity
QVQLVESGGGLLQAGGSLRKSCAASGFTFDENSMGGYRQAPAINYSGASTYYAVSVKGRFTISRDNAKNTVYLQMNSLKPEDTAVYYCAAEVVAQMIYWGQGTQVTVSS | low polyreactivity
QVQLVESGGGLLQAGGSLRLSCAASGFIFRGYNMGWYRQAPGKERELVAAITTTSSTYYADSVKGRFTISRDNAKNTVYLQMNSLKPEDTAVYYCAALFYRYGYLYNYWGQGTQVTVSS | high polyreactivity
QVQLVESGGGLLQAGGSLRLSCAASGFNFGRYAMGWYRQAPGKERELVATISRSGGSTYYADSVKGRFTISRDNSKNTVFLQMNSLKPEDTAVYYCNALILPTKMGYWGQGTQVTVSS | low polyreactivity

From the nanobody polyreactivity screen of Harvey et al. (2022)
